The target in the assay is solubilized kinase domain of B-Raf (sB-Raf), unlabeled (human) (UniProt P15056). Description: native MS; LILBID-MS of the BS3-crosslinked sample and of non-crosslinked mixtures, sB-Raf:CDC-37:FKB-6:HSP-90 = 1:1:1:1 or as indicated; 25 mM Tris, 20 mM KCl, pH 7.5.

B1: nematode CDC-37 (natural protein)
chain: MPIDYSKWKDIEVSDDEDDTHPNIDTPSLFRWRHQARLERMAEKKMEQEKIDKEKGTTSKKMEELEKKLAAADVTDKSDIQKQIDEVKAQEEAWRKKEAELEEKERLEPWNVDTIGHEAFSTSRINKITEKKPQAPKTDEEDTHAMSTFFETHESLLEKMAVLKNGAKSTELFLAEHPHMASEYTANWLTIEALNAAIDFNEEKMKTMAEQCIIIQYLLELSKSLNAVATNTTVQKQFFKKFEAAEPVYMKHYQDEVKAFEDRLRTRAQTKRDAAMEEAEAEEKAERMKSAPGGIDPQEVFEQLPEEMRKCFEAHDIEALKGVAQKMDEEVFKYHFDRCIASGLWVPGKADDDDDDEEAAPAEEEPTTSS
As usually defined, the stoichiometry N is the number of molecules, sites or subunits per partner or assembly. Turning to B1, the stoichiometry N is 1.

The values above are taken from publication PMC8196007.
